The assay deals with T1, Human uPAR (uPA receptor), recombinant (human, UniProt Q03405 23-305).
T1 construct: probably a soluble form without the GPI anchor (surmise)
Kind of assay: SPR; uPAR coupled to the sensor surface (1000 RU, 15 ug/mL in 10 mM Na acetate pH 4.5); 4 nM purified uPA variant (pro-uPA, ATF or GFD) passed over with or without RNA aptamer; bound amount after 80 s injection. The conditions noted are these: both partners purified. For orientation: Surface plasmon resonance follows binding to a sensor surface in real time, without labels.

T1 sequence (Q03405 23-305): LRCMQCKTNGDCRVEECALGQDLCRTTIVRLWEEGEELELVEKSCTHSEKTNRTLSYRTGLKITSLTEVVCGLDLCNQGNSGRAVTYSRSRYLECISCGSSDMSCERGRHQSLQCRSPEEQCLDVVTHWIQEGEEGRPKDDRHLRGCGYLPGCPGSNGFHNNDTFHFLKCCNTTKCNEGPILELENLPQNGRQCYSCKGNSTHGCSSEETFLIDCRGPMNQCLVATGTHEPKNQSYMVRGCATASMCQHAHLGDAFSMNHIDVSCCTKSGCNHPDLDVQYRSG

B1: GFD^4-43 domain of uPA (domain or fragment, human, UniProt P00749 24-63, looked up)
chain: LHQVPSNCDCLNGGTCVSNKYFSNIHWCNCPKKFGGQHCE
notes: human uPA epidermal growth factor-like domain, residues 4-43; numbers count on: the mature protein; also called growth factor domain; source: excised from recombinant pro-uPA by Glu-C digestion, purified by size exclusion chromatography
Turning to B1, the binding result was “binds”.

These data come from PMC4368798, “Protein-Binding RNA Aptamers Affect Molecular Interactions Distantly from Their Binding Sites” (PLoS ONE, 2015).
